As a reminder, the Kd is a measure of binding affinity in units of concentration. A low value points to a tighter complex.

The target in experiment [1] is T1, human GPR116 with C-terminal fused FLAG, stably overexpressed (human, UniProt Q8IZF2 22-1346).
T1 construct: human GPR116, recombined from the pEntry1a GPR116 plasmid into plenti6/V5 DEST; Same construct in two HEK293 lines; also called GPR116 OE; HEK293T GPR116 (human) OE cells; not shown: FLAG, C-terminal, kept
T1 sequence (looked up): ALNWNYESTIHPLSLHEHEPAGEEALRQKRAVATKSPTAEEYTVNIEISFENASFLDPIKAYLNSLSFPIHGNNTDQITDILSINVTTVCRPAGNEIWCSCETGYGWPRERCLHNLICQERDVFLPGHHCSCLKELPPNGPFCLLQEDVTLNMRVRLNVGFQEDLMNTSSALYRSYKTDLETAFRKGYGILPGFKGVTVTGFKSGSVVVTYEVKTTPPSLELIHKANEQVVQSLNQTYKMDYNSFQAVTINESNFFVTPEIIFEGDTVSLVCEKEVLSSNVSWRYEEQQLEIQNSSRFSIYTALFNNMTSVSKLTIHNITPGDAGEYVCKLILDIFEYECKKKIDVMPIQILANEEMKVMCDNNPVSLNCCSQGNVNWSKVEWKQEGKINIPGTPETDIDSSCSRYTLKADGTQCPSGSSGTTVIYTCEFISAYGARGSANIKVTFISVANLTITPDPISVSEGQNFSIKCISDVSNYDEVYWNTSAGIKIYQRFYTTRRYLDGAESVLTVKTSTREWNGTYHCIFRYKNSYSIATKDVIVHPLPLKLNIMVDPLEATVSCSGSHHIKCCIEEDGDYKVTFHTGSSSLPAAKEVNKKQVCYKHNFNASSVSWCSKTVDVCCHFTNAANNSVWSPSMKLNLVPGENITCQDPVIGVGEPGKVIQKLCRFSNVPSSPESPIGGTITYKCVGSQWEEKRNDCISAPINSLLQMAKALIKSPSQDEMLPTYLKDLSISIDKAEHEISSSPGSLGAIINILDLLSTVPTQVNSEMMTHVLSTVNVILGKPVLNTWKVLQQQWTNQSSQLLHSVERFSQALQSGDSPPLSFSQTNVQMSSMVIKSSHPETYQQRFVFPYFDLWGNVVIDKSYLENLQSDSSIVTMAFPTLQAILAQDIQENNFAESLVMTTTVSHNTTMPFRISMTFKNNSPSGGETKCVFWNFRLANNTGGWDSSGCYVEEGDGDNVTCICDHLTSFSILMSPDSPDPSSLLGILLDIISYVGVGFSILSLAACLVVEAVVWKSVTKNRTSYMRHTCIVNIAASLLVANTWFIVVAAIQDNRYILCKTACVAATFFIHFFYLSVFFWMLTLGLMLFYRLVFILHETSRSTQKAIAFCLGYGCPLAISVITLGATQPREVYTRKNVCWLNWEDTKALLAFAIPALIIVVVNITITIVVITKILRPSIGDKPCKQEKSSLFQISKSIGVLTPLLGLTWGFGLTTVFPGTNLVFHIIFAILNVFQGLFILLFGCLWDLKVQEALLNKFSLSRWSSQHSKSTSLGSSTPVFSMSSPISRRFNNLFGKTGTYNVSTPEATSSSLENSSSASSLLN
As to the kind of experiment: flow cytometry on cells; saturation binding of FcsFNDC4 or Fc control on HEK293A cells with stable human GPR116-FLAG OE or mock cells; 4 °C, PBS with 3% FBS; anti-human IgG-PE; Kd from total binding. Conditions: one partner purified. Background: In flow cytometry, cells or beads pass a laser one at a time.

In experiment [2] the target is T1, human GPR116 with C-terminal fused …. As to the kind of experiment: flow cytometry on cells; saturation binding of FcsFNDC4 or Fc control on HEK293T cells with stable human GPR116-FLAG OE or mock cells; also in excess of sFNDC4 (1 mM) for non-specific binding; 4 °C, PBS with 3% FBS; anti-human IgG-PE; Kd from specific binding. The note with it: one partner purified.

B1: 6xHis-Fc-sFNDC4 fusion protein (extracellular part of mouse FNDC4 fused with human IgG Fc) (Fc fusion)
chain: RPPSPVNVTVTHLRANSATVSWDVPEGNIVIGYSISQQRQNGPGQRVIREVNTTTRACALWGLAEDSDYTVQVRSIGLRGESPPGPRVHFRTLKGSDRLPSNSSSPGDITVEGLDGERPLQTGE
notes: extracellular part of mouse FNDC4 (sFNDC4), stated as aa 40-160; also called FcFNDC4; FcsF4; not shown: 6xHis, N-terminal, kept; Fc (human IgG), N-terminal, kept
B1: the Kd in experiment [1] was 0.033 ± 0.01 µM; in experiment [2], 0.025 ± 0.005 µM.
